Substitutions are numbered along the chain they refer to.
B1: Fc603 (other)
chain: DKTHTCPPCPAPELLGGPSVFLFPPKPKDTLMISRTPEVTCVVVDVSHEDPEVKFNWYVDGVEVHNAKTKPREEQYNSTYRVVSVLTVLHQDWLNGKEYKCKVSNKALPAPIEKTISKANGQPREPQVYTLPPSRDELTKNQVSLTCLVKGFYPSDIAVEWVSNGQPENNYKTTPPVLDSDGSFFLYSKLTVDKSRWQQGNVFSCSVIHEALHNHYTQKSLSLSPGK
notes: Aglycosylated Fc fragment (E. coli, pPelBFLAG), assayed on spheroplasts; not shown: C-terminal FLAG tag from pPelBFLAG
B2: Fc607 (other)
chain: B1 chain with H4Y, E49K, N105S, N120K, G121V
notes: as for B1
B3: Fc605 (other)
chain: B1 chain with N120Q, A158D
notes: as for B1
B4: Fc602 (other)
chain: B1 chain with N77D, N95D
notes: as for B1
B5: Fc606 (other)
chain: B1 chain with N105S
notes: as for B1
B6: Fc608 (other)
chain: B1 chain with N120K, G121V, K172E
notes: as for B1
B7: Fc604 (other)
chain: B1 chain with K118I
notes: as for B1
B8: Fc611 (other)
chain: B1 chain with N120K, G121V
notes: as for B1
B9: Fc616 (other)
chain: B1 chain with Y80C, N120K, G121V
notes: as for B1
B10: Fc613 (other)
chain: B1 chain with N120K, G121V, V149A
notes: as for B1
B11: Fc707 (other)
chain: B1 chain with L108W, A110E, I112Y, N120K
notes: as for B1
B12: Fc617 (other)
chain: B1 chain with N120K, G121V, V128M
notes: as for B1
B13: Fc703 (other)
chain: B1 chain with L108W, A110E, P111E, I112Y, N120K
notes: as for B1
B14: Fc701 (other)
chain: B1 chain with Q75R, L108W, A110V, P111A, I112Y, N120K
notes: Aglycosylated Fc fragment (E. coli, pPelBFLAG), assayed on spheroplasts; also called IgG1-Fc701; not shown: C-terminal FLAG tag from pPelBFLAG
B15: Fc610 (other)
chain: B1 chain with F21L, N120K, G121V
notes: as for B1
B16: Fc609 (other)
chain: B1 chain with K118R, N120K, G121V, S204L, N214D
notes: as for B1
B17: Fc706 (other)
chain: B1 chain with L108W, A110I, P111E, I112Y, N120K
notes: as for B1
B18: Fc702 (other)
chain: B1 chain with V59M, L108W, A110E, P111E, I112Y, N120K
notes: as for B1
B19: Fc708 (other)
chain: B1 chain with L108W, P111S, I112Y, N120K
notes: as for B1
B20: Fc705 (other)
chain: B1 chain with L108W, A110E, P111V, I112Y, N120K
notes: as for B1
B21: Fc601 (other)
chain: B1 chain with K118R, N120K, G121V
notes: Aglycosylated Fc fragment (E. coli, pPelBFLAG), assayed on spheroplasts; also called IgG1-Fc601; not shown: C-terminal FLAG tag from pPelBFLAG
B22: Fc614 (other)
chain: B1 chain with N66D, N120K, G121V, N214S
notes: as for B1
B23: Fc704 (other)
chain: B1 chain with L108W, A110E, P111V, I112Y, N120K, S206T
notes: as for B1
B24: Fc619 (other)
chain: B1 chain with V46M, N120K
notes: as for B1
B25: Fc612 (other)
chain: B1 chain with N56D, N120K, G121V
notes: as for B1
B26: Fc615 (other)
chain: B1 chain with N105S, N120K, G121V
notes: as for B1
B27: Fc618 (other)
chain: B1 chain with N120K, N214S
notes: as for B1

target: T1, extracellular domain of recombinant glycosylated FcγRIa/CD64 (R&D Systems) labeled with FITC (human, UniProt P12314 16-292, FITC-labeled; glycosylated); assay: flow cytometry of E. coli spheroplasts labeled with FcγRIa-FITC (summary in Example 3)
T1 construct: extracellular domain; it is not restated for the bought reagent; also called FcγRIa-FITC; FcγRI-FITC
T1 sequence (P12314 16-292): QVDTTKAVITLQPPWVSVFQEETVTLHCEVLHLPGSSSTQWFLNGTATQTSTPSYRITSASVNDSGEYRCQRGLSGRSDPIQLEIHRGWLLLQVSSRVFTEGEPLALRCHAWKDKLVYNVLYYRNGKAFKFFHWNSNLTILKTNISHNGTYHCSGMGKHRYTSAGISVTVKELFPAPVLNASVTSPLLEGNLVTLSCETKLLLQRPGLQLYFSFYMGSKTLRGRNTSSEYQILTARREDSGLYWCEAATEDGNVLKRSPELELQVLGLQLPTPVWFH

Binder | binding result
B1 | binds
B2 | binds
B3 | binds
B4 | binds
B5 | binds
B6 | binds
B7 | binds

target: T1, extracellular domain of recombinant …; assay: flow cytometry of E. coli spheroplasts expressing the Fc fragment, labeled with FcγRIa-FITC

Binder | binding result
B8 | binds
B9 | binds
B10 | binds
B11 | binds
B12 | binds
B13 | binds
B14 | binds
B15 | binds
B16 | binds
B17 | binds
B18 | binds
B19 | binds
B20 | binds
B21 | binds
B22 | binds
B23 | binds
B24 | binds
B25 | binds
B26 | binds
B27 | binds
